Assay results: paper PMC3295402 (Journal of Experimental Botany, 2012)
Numbering of substitutions follows the chain as printed. Each block holds one molecule with its values, some of them ahead of it.

Experiments:
[1] = target: cryptogein (wt cryptogein, Cry) (Phytophthora cryptogea, UniProt P15570); assay: biochemical
[2] = target: cryptogein (wt cryptogein, Cry) (Phytophthora cryptogea, UniProt P15570, L61F); assay: biochemical
[3] = target: high-affinity binding site on the tobacco plasma membrane (tobacco (endogenous in Xanthi cell suspension)); assay: filter binding of FITC-labelled ligand to plasma membrane preparations

Molecule: CC(C)[C@@H](C)/C=C/[C@@H](C)[C@H]1CC[C@H]2C3=CC=C4C[C@@H](O)CC[C@]4(C)C3=CC[C@]12C [DHE]
Kd [1]: 560 ± 40 nM
Kd [2]: 850 ± 50 nM

B3: cryptogein Leu41Phe/Val84Phe double mutant (ligand)
chain: GTACTATQQTAAYKTLVSILSDASFNQCSTDSGYSMLTAKAFPTTAQYKLMCASTACNTMIKKIVTLNPPNCDLTVPTSGLVLNFYSYANGFSNKCSSL
modifications: fluorescein isothiocyanate (FITC) label, site not stated
amount of bound molecules at 30 nM (pmol mg^−1 plasma membrane proteins) [3]: 16.9

B4: cryptogein Leu41Phe mutant (ligand)
chain: B3 chain with F85V
modifications: fluorescein isothiocyanate (FITC) label, site not stated
amount of bound molecules at 30 nM (pmol mg^−1 plasma membrane proteins) [3]: 14.4

The next lines start with the values.

amount of bound molecules at 10 nM (pmol mg^−1 plasma membrane proteins) [3]: 57.4
B1: wild type (wt) cryptogein (ligand)
chain: B3 chain with F42L, F85V
modifications: fluorescein isothiocyanate (FITC) label, site not stated

amount of bound molecules at 10 nM (pmol mg^−1 plasma membrane proteins) [3]: 55.3
B2: cryptogein Val84Phe mutant (ligand)
chain: B3 chain with F42L, V65F, F85V
modifications: fluorescein isothiocyanate (FITC) label, site not stated
